Assay results: US20240124553A1

Assays:
Test in all cases: flow cytometry, transfected 293T cells
[1] = target: CHIKV E2-E1 envelope glycoproteins (strain S27), E2 mutant A103S (chikungunya virus strain S27) (UniProt Q8JUX5)
[2] = target: CHIKV E2-E1 envelope glycoproteins (strain S27), E2 mutant C105A (chikungunya virus strain S27) (UniProt Q8JUX5)
[3] = target: CHIKV E2-E1 envelope glycoproteins (strain S27), E2 mutant C125A (chikungunya virus strain S27) (UniProt Q8JUX5)
[4] = target: CHIKV E2-E1 envelope glycoproteins (strain S27), E2 mutant D59A (chikungunya virus strain S27) (UniProt Q8JUX5)
[5] = target: CHIKV E2-E1 envelope glycoproteins (strain S27), E2 mutant D60A (chikungunya virus strain S27) (UniProt Q8JUX5)
[6] = target: CHIKV E2-E1 envelope glycoproteins (strain S27), E2 mutant D71A (chikungunya virus strain S27) (UniProt Q8JUX5)
[7] = target: CHIKV E2-E1 envelope glycoproteins (strain S27), E2 mutant D77A (chikungunya virus strain S27) (UniProt Q8JUX5)
[8] = target: CHIKV E2-E1 envelope glycoproteins (strain S27), E2 mutant E109A (chikungunya virus strain S27) (UniProt Q8JUX5)
[9] = target: CHIKV E2-E1 envelope glycoproteins (strain S27), E2 mutant F100A (chikungunya virus strain S27) (UniProt Q8JUX5)
[10] = target: CHIKV E2-E1 envelope glycoproteins (strain S27), E2 mutant G114A (chikungunya virus strain S27) (UniProt Q8JUX5)
[11] = target: CHIKV E2-E1 envelope glycoproteins (strain S27), E2 mutant G44A (chikungunya virus strain S27) (UniProt Q8JUX5)
[12] = target: CHIKV E2-E1 envelope glycoproteins (strain S27), E2 mutant G55A (chikungunya virus strain S27) (UniProt Q8JUX5)
[13] = target: CHIKV E2-E1 envelope glycoproteins (strain S27), E2 mutant I101A (chikungunya virus strain S27) (UniProt Q8JUX5)
[14] = target: CHIKV E2-E1 envelope glycoproteins (strain S27), E2 mutant I48A (chikungunya virus strain S27) (UniProt Q8JUX5)
[15] = target: CHIKV E2-E1 envelope glycoproteins (strain S27), E2 mutant L83A (chikungunya virus strain S27) (UniProt Q8JUX5)
[16] = target: CHIKV E2-E1 envelope glycoproteins (strain S27), E2 mutant M70A (chikungunya virus strain S27) (UniProt Q8JUX5)
[17] = target: CHIKV E2-E1 envelope glycoproteins (strain S27), E2 mutant N39A (chikungunya virus strain S27) (UniProt Q8JUX5)
[18] = target: CHIKV E2-E1 envelope glycoproteins (strain S27), E2 mutant P106A (chikungunya virus strain S27) (UniProt Q8JUX5)
[19] = target: CHIKV E2-E1 envelope glycoproteins (strain S27), E2 mutant P128A (chikungunya virus strain S27) (UniProt Q8JUX5)
[20] = target: CHIKV E2-E1 envelope glycoproteins (strain S27), E2 mutant Q53A (chikungunya virus strain S27) (UniProt Q8JUX5)
[21] = target: CHIKV E2-E1 envelope glycoproteins (strain S27), E2 mutant R119A (chikungunya virus strain S27) (UniProt Q8JUX5)
[22] = target: CHIKV E2-E1 envelope glycoproteins (strain S27), E2 mutant R36A (chikungunya virus strain S27) (UniProt Q8JUX5)
[23] = target: CHIKV E2-E1 envelope glycoproteins (strain S27), E2 mutant R38A (chikungunya virus strain S27) (UniProt Q8JUX5)
[24] = target: CHIKV E2-E1 envelope glycoproteins (strain S27), E2 mutant S118A (chikungunya virus strain S27) (UniProt Q8JUX5)
[25] = target: CHIKV E2-E1 envelope glycoproteins (strain S27), E2 mutant S122A (chikungunya virus strain S27) (UniProt Q8JUX5)
[26] = target: CHIKV E2-E1 envelope glycoproteins (strain S27), E2 mutant S61A (chikungunya virus strain S27) (UniProt Q8JUX5)
[27] = target: CHIKV E2-E1 envelope glycoproteins (strain S27), E2 mutant T110A (chikungunya virus strain S27) (UniProt Q8JUX5)
[28] = target: CHIKV E2-E1 envelope glycoproteins (strain S27), E2 mutant T42A (chikungunya virus strain S27) (UniProt Q8JUX5)
[29] = target: CHIKV E2-E1 envelope glycoproteins (strain S27), E2 mutant T45A (chikungunya virus strain S27) (UniProt Q8JUX5)
[30] = target: CHIKV E2-E1 envelope glycoproteins (strain S27), E2 mutant T65A (chikungunya virus strain S27) (UniProt Q8JUX5)
[31] = target: CHIKV E2-E1 envelope glycoproteins (strain S27), E2 mutant V32A (chikungunya virus strain S27) (UniProt Q8JUX5)
[32] = target: CHIKV E2-E1 envelope glycoproteins (strain S27), E2 mutant V85A (chikungunya virus strain S27) (UniProt Q8JUX5)
[33] = target: CHIKV E2-E1 envelope glycoproteins (strain S27), E2 mutant W64A (chikungunya virus strain S27) (UniProt Q8JUX5)

| Substance | Binding Reactivity (% WT) [1] [% WT] | Binding Reactivity (% WT) [2] [% WT] | Binding Reactivity (% WT) [3] [% WT] | Binding Reactivity (% WT) [4] [% WT] | Binding Reactivity (% WT) [5] [% WT] | Binding Reactivity (% WT) [6] [% WT] | Binding Reactivity (% WT) [7] [% WT] | Binding Reactivity (% WT) [8] [% WT] | Binding Reactivity (% WT) [9] [% WT] | Binding Reactivity (% WT) [10] [% WT] | Binding Reactivity (% WT) [11] [% WT] | Binding Reactivity (% WT) [12] [% WT] | Binding Reactivity (% WT) [13] [% WT] | Binding Reactivity (% WT) [14] [% WT] | Binding Reactivity (% WT) [15] [% WT] | Binding Reactivity (% WT) [16] [% WT] | Binding Reactivity (% WT) [17] [% WT] | Binding Reactivity (% WT) [18] [% WT] | Binding Reactivity (% WT) [19] [% WT] | Binding Reactivity (% WT) [20] [% WT] | also measured |
| --- | --- | --- | --- | --- | --- | --- | --- | --- | --- | --- | --- | --- | --- | --- | --- | --- | --- | --- | --- | --- | --- |
| CHIKV mAb C9 (antibody) | 69.7 | -0.2 | 0 | 71.8 | 74 | 91.8 | 93.3 | 109 | 34.2 | 67.5 | 72.5 | 75.9 | 26.6 | 10.7 | 18.7 | 81 | 108 | 88.9 | 112 | 39.6 | Binding Reactivity (% WT) [21]: 88 % WT; Binding Reactivity (% WT) [22]: 75.4 % WT; Binding Reactivity (% WT) [23]: 86.3 % WT; Binding Reactivity (% WT) [24]: 97.4 % WT; Binding Reactivity (% WT) [25]: 98.7 % WT; Binding Reactivity (% WT) [26]: 93.1 % WT; Binding Reactivity (% WT) [27]: 88 % WT; Binding Reactivity (% WT) [28]: 102 % WT; Binding Reactivity (% WT) [29]: 71.7 % WT; Binding Reactivity (% WT) [30]: 71.1 % WT; Binding Reactivity (% WT) [31]: 44 % WT; Binding Reactivity (% WT) [32]: 77.8 % WT; Binding Reactivity (% WT) [33]: 60.6 % WT |
| CHIKV mAb CHKV-88 (antibody) | 85 | -0.1 | 3.7 | 86.1 | 56.5 | 108 | 94.7 | 124 | 69.1 | 65.3 | 98.1 | 111 | 44.5 | 39.6 | 38.8 | 93.7 | 124 | 105 | 102 | 85 | Binding Reactivity (% WT) [21]: 99.5 % WT; Binding Reactivity (% WT) [22]: 83.8 % WT; Binding Reactivity (% WT) [23]: 99.6 % WT; Binding Reactivity (% WT) [24]: 117 % WT; Binding Reactivity (% WT) [25]: 84.3 % WT; Binding Reactivity (% WT) [26]: 105 % WT; Binding Reactivity (% WT) [27]: 107 % WT; Binding Reactivity (% WT) [28]: 112 % WT; Binding Reactivity (% WT) [29]: 85.7 % WT; Binding Reactivity (% WT) [30]: 87.9 % WT; Binding Reactivity (% WT) [31]: 84.8 % WT; Binding Reactivity (% WT) [32]: 75.9 % WT; Binding Reactivity (% WT) [33]: 126 % WT |
| CHIKV mAb IM-CKV063 (antibody) | 65.8 | 0.4 | 0.5 | 81.1 | 64.8 | 98.9 | 92.2 | 76.6 | 33.6 | 58.4 | 68.2 | 83.3 | 19.8 | 7.9 | 18.7 | 81.7 | 120 | 94.3 | 86 | 37.3 | Binding Reactivity (% WT) [21]: 72 % WT; Binding Reactivity (% WT) [22]: 76.5 % WT; Binding Reactivity (% WT) [23]: 94.7 % WT; Binding Reactivity (% WT) [24]: 93.1 % WT; Binding Reactivity (% WT) [25]: 82.8 % WT; Binding Reactivity (% WT) [26]: 100 % WT; Binding Reactivity (% WT) [27]: 88.1 % WT; Binding Reactivity (% WT) [28]: 111 % WT; Binding Reactivity (% WT) [29]: 62.1 % WT; Binding Reactivity (% WT) [30]: 70.1 % WT; Binding Reactivity (% WT) [31]: 44.1 % WT; Binding Reactivity (% WT) [32]: 74.5 % WT; Binding Reactivity (% WT) [33]: 69.1 % WT |
| CHIKV mAb IM-CKV065 (antibody) | 46.8 | -2.9 | -2.9 | 72.8 | 114 | 102 | 61.2 | 82.6 | 15.1 | 35.2 | 50.4 | 86.2 | 6.3 | 0.3 | 6.2 | 104 | 120 | 98.1 | 80.3 | 43.3 | Binding Reactivity (% WT) [21]: 120 % WT; Binding Reactivity (% WT) [22]: 119 % WT; Binding Reactivity (% WT) [23]: 133 % WT; Binding Reactivity (% WT) [24]: 86 % WT; Binding Reactivity (% WT) [25]: 91.1 % WT; Binding Reactivity (% WT) [26]: 112 % WT; Binding Reactivity (% WT) [27]: 72.1 % WT; Binding Reactivity (% WT) [28]: 104 % WT; Binding Reactivity (% WT) [29]: 62.4 % WT; Binding Reactivity (% WT) [30]: 98.4 % WT; Binding Reactivity (% WT) [31]: 33.3 % WT; Binding Reactivity (% WT) [32]: 88.1 % WT; Binding Reactivity (% WT) [33]: 86.3 % WT |
| Mxra8-Fc (mouse Mxra8 extracellular domain fused to mouse IgG2b Fc) (Fc fusion) | 91.3 | -0.1 | -0.2 | 78.9 | 102 | -0.3 | 83.7 | 97.4 | 26.2 | 79.1 | 72.2 | 101 | 23.7 | 11.1 | 17.3 | 110 | 91.9 | 91.2 | 122 | 26.3 | Binding Reactivity (% WT) [21]: 0 % WT; Binding Reactivity (% WT) [23]: 90.7 % WT; Binding Reactivity (% WT) [24]: 89.6 % WT; Binding Reactivity (% WT) [25]: 101 % WT; Binding Reactivity (% WT) [26]: 116 % WT; Binding Reactivity (% WT) [27]: 99.6 % WT; Binding Reactivity (% WT) [28]: 95.7 % WT; Binding Reactivity (% WT) [29]: 81.2 % WT; Binding Reactivity (% WT) [30]: 68.9 % WT; Binding Reactivity (% WT) [31]: 47.1 % WT; Binding Reactivity (% WT) [32]: 84.6 % WT; Binding Reactivity (% WT) [33]: 17.7 % WT |
